According to patent US9976134B2, “Thermolysin variants” (Danisco US Inc., priority 2007, dated 2018):

Key:
[1] = Stability assay in 25% TIDE 2X detergent with DTPA (residual Abz-AGLA-Nba protease activity); format: physicochemical; settings: 60 min at 32°C; variant residual AGLA activity divided by wild-type residual activity
Method in brief: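 Thermolysin variant culture supernatants stressed in TIDE 2× detergent, with or without DTPA: 60 min at 32° C or 180 min at 50° C. Residual versus unstressed activity on Abz-AGLA-Nba read kinetically at 25° C (Ex 350/Em 420). Performance index is variant residual activity divided by wild-type thermolysin residual activity.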

[2] = Stability assay in 25% TIDE 2X detergent without DTPA (residual Abz-AGLA-Nba protease activity); format: physicochemical; settings: 180 min at 50°C; variant residual AGLA activity divided by wild-type residual activity
Procedure: The stability of thermolysin and variants thereof was measured after incubation under defined conditions in the presence of 25% TIDE® 2× detergent. The initial and residual activity was determined.
MTPs were obtained from Costar (type 9017) and from Greiner (black plate, type 655076). Test Method Unstressed Conditions:
First, 20 μl thermolysin containing culture supernatant was diluted with 180 μl MES assay buffer. Then, 20 μl diluted supernatant was diluted further with 180 μl MES assay buffer. Subsequently 10 μl of this dilution was transferred into 190 μl AGLA-substrate solution in a pre-warmed plate (Greiner 655076) at 25° C. Any air bubbles present were blown away and the plate was measured according to the AGLA protease assay protocol described below.
First, 20 μl of culture supernatant was diluted with 180 μl 27.5% TIDE®+detergent solution and placed in the iEMS shaker. The plate covered with a plate seal was incubated for a total of 60 minutes at 32° C. at 900 rpm. In addition, 20 μl of culture supernatant was diluted with 180 μl 27.5% TIDE®−solution and placed in the iEMS shaker. This plate covered with a plate seal was incubated for a total of 180 minutes at 50° C. at 900 rpm.
Subsequently after the respective incubations, 20 μl of either of these solutions were diluted with 180 μl MES assay buffer and 10 μl of this dilution were diluted with 190 μl AGLA-substrate solution in a pre-warmed plate (Greiner 655076) at 25° C.
Fluorescence measurements were taken at excitation of 350 nm and emission of 420 nm. The spectrofluorometer software calculated the reaction rates (=slope) of the increase in fluorescence for each well to a linearly regressed line of (milli-) RFU/min. The ratio of the residual and initial AGLA activity was used to express the 25% TIDE® 2× stability as follows: Percentage of residual activity=[slope of stressed]*100/[slope of unstressed]
For each sample (thermolysin and variants thereof) the performance index was calculated by dividing the residual activity of the variant by the residual activity of thermolysin. The performance index compared the stability of the variant and the standard thermolysin enzyme (e.g., wild type or parental enzyme), determined under the same conditions.
In these experiments, the liberation of Abz-AG by protease cleavage of Abz-AGLA-Nba was monitored by fluorescence spectrometry (Ex. 350/Em. 420). The rate of appearance of Abz-AG was a measure of proteolytic activity.
The Abz-AGLA-Nba assay solution was prepared by adding 1 ml of the Abz-AGLA-Nba stock to 19 ml MES substrate buffer and mixed well for at least 2 minutes. Subsequently the thermolysin or variants thereof containing culture supernatants were diluted with MES assay buffer to a concentration of 1-6 μg protein per ml.
The assay was performed by adding 10 μl of diluted protease solution to each well, followed by the addition of 190 μl Abz-AGLA-Nba assay solution that was pre-equilibrated for at least 15 minutes at 25° C. The solutions were vigorously mixed, and the liberation of Abz-AG by protease cleavage of Abz-AGLA-Nba was monitored by fluorescence spectrometry at 25° C. in kinetic mode with excitation set at 350 nm and emission set at 420 nm. The rate of appearance of Abz-AG was a measure of proteolytic activity in the samples. The protease activity was expressed as RFU (relative fluorescence units·min^−1).
As described in Example 1, the stability of thermolysin variants was measured by determining the AGLA activity before and after incubation in the presence of TIDE® 2× heavy duty liquid (HDL) detergent at an elevated temperature. The tables contain the relative stability values compared to wild-type thermolysin, which is the quotient of the variant residual activity divided by the wild-type residual activity. A value greater than one indicates higher stability in the presence of detergent. […]

| Molecule | PI (relative stability), 25% TIDE 2X with DTPA [1] | PI (relative stability), 25% TIDE 2X without DTPA [2] |
| --- | --- | --- |
| I156E: single-substitution thermolysin variant (SEQ ID NO:3 numbering) (protein, listed as Geobacillus caldoproteolyticus) ITGTSTVGVGRGVLGDQKNINTTYSTYYYLQDNTRGNGIFTYDAKYRTTLPGSLWADADNQFFASYDAPAVDAHYYAGVTYDYYKNVHNRLSYDGNNAAIRSSVHYSQGYNNAFWNGSQMVYGDGDGQTFIPLSGGIDVVAHELTHAVTDYTAGLEYQNESGAINEAISDIFGTLVEFYANKNPDWEIGEDVYTPGISGDSLRSMSDPAKYGDPDHYSKRYTGTQDNGGVHINSGIINKAAYLISQGGTHYGVSVVGIGRDKLGKIFYRALTQYLTPTSNFSQLRAAAVQSATDLYGSTSQEVASVKQAFDAVGVK | 1.58 | 1.09 |
| S065E: single-substitution thermolysin variant (SEQ ID NO:3 numbering) (protein, listed as Geobacillus caldoproteolyticus) ITGTSTVGVGRGVLGDQKNINTTYSTYYYLQDNTRGNGIFTYDAKYRTTLPGSLWADADNQFFAEYDAPAVDAHYYAGVTYDYYKNVHNRLSYDGNNAAIRSSVHYSQGYNNAFWNGSQMVYGDGDGQTFIPLSGGIDVVAHELTHAVTDYTAGLIYQNESGAINEAISDIFGTLVEFYANKNPDWEIGEDVYTPGISGDSLRSMSDPAKYGDPDHYSKRYTGTQDNGGVHINSGIINKAAYLISQGGTHYGVSVVGIGRDKLGKIFYRALTQYLTPTSNFSQLRAAAVQSATDLYGSTSQEVASVKQAFDAVGVK | 1.08 | 1.34 |
| Q128C: single-substitution thermolysin variant (SEQ ID NO:3 numbering) (protein, listed as Geobacillus caldoproteolyticus) ITGTSTVGVGRGVLGDQKNINTTYSTYYYLQDNTRGNGIFTYDAKYRTTLPGSLWADADNQFFASYDAPAVDAHYYAGVTYDYYKNVHNRLSYDGNNAAIRSSVHYSQGYNNAFWNGSQMVYGDGDGCTFIPLSGGIDVVAHELTHAVTDYTAGLIYQNESGAINEAISDIFGTLVEFYANKNPDWEIGEDVYTPGISGDSLRSMSDPAKYGDPDHYSKRYTGTQDNGGVHINSGIINKAAYLISQGGTHYGVSVVGIGRDKLGKIFYRALTQYLTPTSNFSQLRAAAVQSATDLYGSTSQEVASVKQAFDAVGVK | 1.01 | 1.05 |
| Q128T: single-substitution thermolysin variant (SEQ ID NO:3 numbering) (protein, listed as Geobacillus caldoproteolyticus) ITGTSTVGVGRGVLGDQKNINTTYSTYYYLQDNTRGNGIFTYDAKYRTTLPGSLWADADNQFFASYDAPAVDAHYYAGVTYDYYKNVHNRLSYDGNNAAIRSSVHYSQGYNNAFWNGSQMVYGDGDGTTFIPLSGGIDVVAHELTHAVTDYTAGLIYQNESGAINEAISDIFGTLVEFYANKNPDWEIGEDVYTPGISGDSLRSMSDPAKYGDPDHYSKRYTGTQDNGGVHINSGIINKAAYLISQGGTHYGVSVVGIGRDKLGKIFYRALTQYLTPTSNFSQLRAAAVQSATDLYGSTSQEVASVKQAFDAVGVK | 1.18 | 1.15 |
| S065W: single-substitution thermolysin variant (SEQ ID NO:3 numbering) (protein, listed as Geobacillus caldoproteolyticus) ITGTSTVGVGRGVLGDQKNINTTYSTYYYLQDNTRGNGIFTYDAKYRTTLPGSLWADADNQFFAWYDAPAVDAHYYAGVTYDYYKNVHNRLSYDGNNAAIRSSVHYSQGYNNAFWNGSQMVYGDGDGQTFIPLSGGIDVVAHELTHAVTDYTAGLIYQNESGAINEAISDIFGTLVEFYANKNPDWEIGEDVYTPGISGDSLRSMSDPAKYGDPDHYSKRYTGTQDNGGVHINSGIINKAAYLISQGGTHYGVSVVGIGRDKLGKIFYRALTQYLTPTSNFSQLRAAAVQSATDLYGSTSQEVASVKQAFDAVGVK | – | 1.09 |
| S065C: single-substitution thermolysin variant (SEQ ID NO:3 numbering) (protein, listed as Geobacillus caldoproteolyticus) ITGTSTVGVGRGVLGDQKNINTTYSTYYYLQDNTRGNGIFTYDAKYRTTLPGSLWADADNQFFACYDAPAVDAHYYAGVTYDYYKNVHNRLSYDGNNAAIRSSVHYSQGYNNAFWNGSQMVYGDGDGQTFIPLSGGIDVVAHELTHAVTDYTAGLIYQNESGAINEAISDIFGTLVEFYANKNPDWEIGEDVYTPGISGDSLRSMSDPAKYGDPDHYSKRYTGTQDNGGVHINSGIINKAAYLISQGGTHYGVSVVGIGRDKLGKIFYRALTQYLTPTSNFSQLRAAAVQSATDLYGSTSQEVASVKQAFDAVGVK | 1.05 | 1.14 |
| A056C: single-substitution thermolysin variant (SEQ ID NO:3 numbering) (protein, listed as Geobacillus caldoproteolyticus) ITGTSTVGVGRGVLGDQKNINTTYSTYYYLQDNTRGNGIFTYDAKYRTTLPGSLWCDADNQFFASYDAPAVDAHYYAGVTYDYYKNVHNRLSYDGNNAAIRSSVHYSQGYNNAFWNGSQMVYGDGDGQTFIPLSGGIDVVAHELTHAVTDYTAGLIYQNESGAINEAISDIFGTLVEFYANKNPDWEIGEDVYTPGISGDSLRSMSDPAKYGDPDHYSKRYTGTQDNGGVHINSGIINKAAYLISQGGTHYGVSVVGIGRDKLGKIFYRALTQYLTPTSNFSQLRAAAVQSATDLYGSTSQEVASVKQAFDAVGVK | 1.01 | 1.19 |
| T049S: single-substitution thermolysin variant (SEQ ID NO:3 numbering) (protein, listed as Geobacillus caldoproteolyticus) ITGTSTVGVGRGVLGDQKNINTTYSTYYYLQDNTRGNGIFTYDAKYRTSLPGSLWADADNQFFASYDAPAVDAHYYAGVTYDYYKNVHNRLSYDGNNAAIRSSVHYSQGYNNAFWNGSQMVYGDGDGQTFIPLSGGIDVVAHELTHAVTDYTAGLIYQNESGAINEAISDIFGTLVEFYANKNPDWEIGEDVYTPGISGDSLRSMSDPAKYGDPDHYSKRYTGTQDNGGVHINSGIINKAAYLISQGGTHYGVSVVGIGRDKLGKIFYRALTQYLTPTSNFSQLRAAAVQSATDLYGSTSQEVASVKQAFDAVGVK | 1.08 | 1.26 |
| S065V: single-substitution thermolysin variant (SEQ ID NO:3 numbering) (protein, listed as Geobacillus caldoproteolyticus) ITGTSTVGVGRGVLGDQKNINTTYSTYYYLQDNTRGNGIFTYDAKYRTTLPGSLWADADNQFFAVYDAPAVDAHYYAGVTYDYYKNVHNRLSYDGNNAAIRSSVHYSQGYNNAFWNGSQMVYGDGDGQTFIPLSGGIDVVAHELTHAVTDYTAGLIYQNESGAINEAISDIFGTLVEFYANKNPDWEIGEDVYTPGISGDSLRSMSDPAKYGDPDHYSKRYTGTQDNGGVHINSGIINKAAYLISQGGTHYGVSVVGIGRDKLGKIFYRALTQYLTPTSNFSQLRAAAVQSATDLYGSTSQEVASVKQAFDAVGVK | 1.08 | 1.08 |
